Data: US20230212587A1, “Mutant Hydroxyphenylpyruvate Dioxygenase Polypeptide, Encoding Gene Thereof and Use Therefor” (Beijing Dabeinong Biotechnology Co., Ltd., priority 2019, published 2023)

Tests used:
[1] = tested on: Arabidopsis thaliana T1 plants; assay: Topramezone tolerance of transgenic Arabidopsis thaliana T1 plants (pesticide damage grade by bleached leaf area, score, resistance evaluation); format: in vivo; conditions: mutation combination, Table 8
How it was run: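 Herbicide tolerance was judged per plant on a bleaching scale (grade 0 no bleaching to grade 3 fully bleached) 7 DAT. Topramezone doses were 0, 25, 50 and 100 g ai/ha on 18-day-old T1 and wild-type plants.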

[2] = tested on: soybean T1 plants; assay: Herbicide tolerance of transgenic soybean T1 plants to topramezone; format: in vivo; conditions: topramezone 50 and 100 g ai/ha, 7 DAT, compared to control vector DBN11375NN and wild-type
From the text: The Arabidopsisthaliana T1 plants into which the AsHPPDm-F372A-02 nucleotide sequence was introduced, Arabidopsis thaliana T1 plants into which the AsHPPD-02 nucleotide sequence was introduced and wild-type Arabidopsisthaliana plants (18 days after sowing) were sprayed with topramezone at four different concentrations, i.e., 25 g ai/ha (one-fold field concentration, 1×), 50 g ai/ha (two-fold field concentration, 2×), 100 g ai/ha (four-fold field concentration, 4×) and 0 g ai/ha (water, 0×) to determine the tolerance of Arabidopsisthaliana to the herbicide. The degree of damage caused by the herbicide was measured for each plant according to the proportion of bleached leaf area (the proportion of bleached leaf area=bleached leaf area/total leaf area×100%) 7 days after spraying (7 DAT): the case where there is basically no bleached phenotype is defined as grade 0, the case where the proportion of bleached leaf area is less than 50% is defined as grade 1,the case where the proportion of bleached leaf area is more than 50% is defined as grade 2, and the case where the proportion of bleached leaf area is 100% grade is defined as grade 3.
The soybean T1 plants into which the AsHPPDm-F372A-02 nucleotide sequence was introduced, soybean T1 plants into which the ZmHPPDm-F372A-02 nucleotide sequence was introduced, soybean T1 plants into which the PfHPPDm-F372A-02 nucleotide sequence was introduced, soybean T1 plants into which the AsHPPDm-F372A-A110 nucleotide sequence was introduced, soybean T1 plants into which, the PfHPPDm-F372A-G413W nucleotide sequence was introduced, soybean T1 plants into which the control vector DBN11375NN was introduced and wild-type soybean plants (V3-V4 at seedling stage) were sprayed with topramezone at two different concentrations respectively, i.e. 50 g ai/ha (2-fold field concentration, 2 ×) and 100 g ai/ha (4-fold field concentration, 4 ×) to detect the herbicide tolerance of soybean plants. According to the method in point 6 of Example 1, after 7 days of spraying (7 DAT), the damage degree of each plant by the herbicide was statistically analyzed, and the scoring and resistance evaluation were carried out accordingly. The soybean plants into which the AsHPPDm-F372A-02 nucleotide sequence was introduced were of two strains in total (S1 and S2), the soybean plants into which the ZmHPPDm-F372A-02 nucleotide sequence was introduced were of two strains in total (S3 and S4), the soybean plants into which the PfHPPDm-F372A-02 nucleotide sequence was introduced were of two strains in total (S5 and S6), the soybean plants into which the AsHPPDm-F372A-Al 10 nucleotide sequence was introduced were of two strains in total (S7 and S8), the soybean plants into which the PfHPPDm-F372A-G413W nucleotide sequence was introduced were of two strains in total (S9 and S10), the soybean plants into which the control vector DBN11375NN nucleotide sequence was introduced were of one strain in total (S11), and the wild-type soybean plants were of one strain in total (CK1); and 8 plants were selected from each strain and detected.

B1: PfHPPDm-F372A-G413W: Pseudomonas fluorescens HPPD with F372A and G336W (position 413 of SEQ ID NO: 1), SEQ ID NO: 416 (protein)
chain: MADLYENPMGLMGFEFIEFASPTPGTLEPIFEIMGFTKVATHRSKNVHLYRQGEINLILNNEPNSIASYFAAEHGPSVCGMAFRVKDSQKAYNRALELGAQPIHIDTGPMELNLPAIKGIGGAPLYLIDRFGEGSSIYDIDFVYLEGVERNPVGAGLKVIDHLTHNVYRGRMVYWANFYEKLFNFREARYFDIKGEYTGLTSKAMSAPDGMIRIPLNEESSKGAGQIEEFLMQFNGEGIQHVAFLTDDLVKTWDALKKIGMRFMTAPPDTYYEMLEGRLPDHGEPVDQLQARGILLDGSSVEGDKRLLLQIASETLMGPVFFEFIQRKGDDGFGEWNFKALFESIERDQVRRGVLTAD
modifications: PfHPPDm-F372A-G413W Amino Acid Sequence
Grade 0 (number of plants) ([1]; topramezone 25 g ai/ha): 20 | Grade 1 (number of plants) ([1]; topramezone 25 g ai/ha): 0 | Grade 2 (number of plants) ([1]; topramezone 25 g ai/ha): 0 | Grade 3 (number of plants) ([1]; topramezone 25 g ai/ha): 0 | Resistance Grade ([1]; topramezone 25 g ai/ha): Highly resistant | score ([1]; topramezone 25 g ai/ha): 0 | Grade 0 (number of plants) ([1]; topramezone 100 g ai/ha): 20 | Grade 1 (number of plants) ([1]; topramezone 100 g ai/ha): 0 | Grade 2 (number of plants) ([1]; topramezone 100 g ai/ha): 0 | Grade 3 (number of plants) ([1]; topramezone 100 g ai/ha): 0 | Resistance Grade ([1]; topramezone 100 g ai/ha): Highly resistant | score ([1]; topramezone 100 g ai/ha): 0 | tolerance to topramezone, in words [2]: higher tolerance
